Reference: article PMC7229144, “Tetracycline-inactivating enzymes from environmental, human commensal, and pathogenic bacteria cause broad-spectrum tetracycline resistance” (Communications Biology, 2020)

How the values were obtained:
Tet(X7) [1] = target: T1, Tet(X7) (human gut metagenome, UniProt Z9HWK3IZF4); assay type: binding; settings: FAD in IN-conformation
Tet(X7) [2] = target: T1, Tet(X7); experiment: absorbance, initial velocity of tigecycline degradation; assay type: biochemical; settings: read-out: IC50 (apparent)
[3] = test system: CN(C)c1cc(CNCC(C)(C)C)c(O)c2c1C[C@H]1C[C@H]3[C@H](N(C)C)C(=O)C(C(N)=O)=C(O)[C@@]3(O)C(=O)C1=C2O; experiment: purified protein; settings: 0-40 µM substrate, 504 µM NADPH, 5.04 mM MgCl2, 0.4 µM enzyme, 100 mM TAPS pH 8.5, room temperature
[4] = test system: CN(C)c1cc(NC(=O)CNC(C)(C)C)c(O)c2c1C[C@H]1C[C@H]3[C@H](N(C)C)C(=O)C(C(N)=O)=C(O)[C@@]3(O)C(=O)C1=C2O; experiment: purified protein; settings: 0-40 µM substrate, 504 µM NADPH, 5.04 mM MgCl2, 0.4 µM enzyme, 100 mM TAPS pH 8.5, room temperature
[5] = test system: CN(C)[C@@H]1C(=O)C(C(N)=O)=C(O)[C@@]2(O)C(=O)C3=C(O)c4c(O)c(NC(=O)CN5CCCC5)cc(F)c4C[C@H]3C[C@@H]12; experiment: purified protein; settings: 0-40 µM substrate, 504 µM NADPH, 5.04 mM MgCl2, 0.4 µM enzyme, 100 mM TAPS pH 8.5, room temperature

T1 sequence (Z9HWK3IZF4 21-399 limits assumed): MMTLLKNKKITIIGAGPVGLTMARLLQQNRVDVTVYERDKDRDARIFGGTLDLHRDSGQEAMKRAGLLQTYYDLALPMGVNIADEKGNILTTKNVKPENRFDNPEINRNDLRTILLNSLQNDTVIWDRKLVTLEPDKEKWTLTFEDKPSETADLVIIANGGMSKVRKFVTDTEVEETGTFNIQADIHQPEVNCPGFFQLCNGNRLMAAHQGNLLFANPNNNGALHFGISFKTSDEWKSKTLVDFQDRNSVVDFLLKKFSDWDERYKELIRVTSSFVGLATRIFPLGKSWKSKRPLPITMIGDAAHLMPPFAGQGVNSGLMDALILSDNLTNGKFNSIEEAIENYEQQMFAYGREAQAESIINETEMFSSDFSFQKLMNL

With `Cc1cc2nc3c(=O)[nH]c(=O)nc-3n(C[C@H](O)[C@H](O)[C@H](O)COP(=O)(O)OP(=O)(O)OC[C@H]3O[C@@H](n4cnc5c(N)ncnc54)[C@H](O)[C@@H]3O)c2cc1C` [FAD] the “X-ray crystal structure, 2.55 Å” value (Tet(X7) [1]) was “The FAD in Tet(X7) retains an IN-conformation”.
With `CN(C)[C@@H]1C(=O)C(C(N)=O)=C(O)[C@@]2(O)C(=O)c3c(cc4c(Cl)ccc(O)c4c3O)C[C@@H]12` [anhydrodemeclocycline] the IC50 (Tet(X7) [2]) was 260 ± 40 nM.
For Tet(X7) (uncultured bacterium), the Km [3] was 4 ± 0.4 µM, the kcat [3] was 0.2 ± 0.006 min⁻¹ and the Km [4] was 4 ± 0.4 µM. For the same molecule, the kcat [4] was 0.3 ± 0.01 min⁻¹ and the Km [5] was 6 ± 1 µM.
In the case of `Cc1c2c(c(O)c3c(O)cccc13)C(=O)[C@]1(O)C(=O)C(C(N)=O)=C(O)[C@@H](N(C)C)[C@@H]1C2` [anhydrotetracycline], the IC50 (Tet(X7) [2]) is reported as 1060 ± 108 nM.
